Publication PMC9750858, “Rapid biosensor development using plant hormone receptors as reprogrammable scaffolds” (Nature Biotechnology, 2022)
Where two headings read alike, the source gives them in different places.

Target: T1, ABA-PYR1M complex (Arabidopsis thaliana, UniProt O49686, H60P/N90S)
T1 construct: c-myc (display detection tag); expressed in transfected cells; host or cells: yeast (surface display of PYR1^M); the HAB1 variants were recombinant and purified
T1 sequence (O49686 1-191 H60P/N90S): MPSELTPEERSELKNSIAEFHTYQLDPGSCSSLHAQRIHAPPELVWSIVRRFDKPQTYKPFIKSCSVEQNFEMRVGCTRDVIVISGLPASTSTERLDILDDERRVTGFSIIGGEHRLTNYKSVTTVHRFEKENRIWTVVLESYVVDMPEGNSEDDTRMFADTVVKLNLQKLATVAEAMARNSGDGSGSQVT
Experiment: Yeast surface display titration of HAB1 variants against PYR1^M in the presence of 500 nM ABA
Format: binding
Details: HAB1 variant for the ABA-PYR1M complex, 95% CI in brackets, read-out: KD2
Procedure: For crystallographic structures, PYL2 and ΔN-HAB1^T+ were expressed in E. coli and purified as described previously. Assays for phosphatase activity and apparent Tm, measured via thermal challenge using yeast surface display, were performed essentially as previously described.
(a) Assessment of stabilized, inactivated 6xHis -MBP-ΔN -HAB1 variants. Experiments were repeated on two separat e days using independently generated batches of protein. Error bars indicate 1 SD of 3 measure ments . Sets of mutations f or each variant are noted in Supporting File 1.
MBP-ΔN -HAB1 variants using p-NPP.
HAB1 variants using YSD of PYR1M, in the presence of 500 nM ABA and 20 nM 6xHis -MBP-ΔN -HAB1 variant. The […]
here ref ers to streptavidin -phycoerythrin.
(b) Gating strategy for analysis of data shown in part (a). The f luorescence (a.u.) reported in part (a) is the gated ΔN - HAB 1T+ binding as measured by streptavidin -phycoeryt hrin (SAPE).

B1: WT (636): 6×His–MBP–ΔN-HAB1 (C186S, C274S) (protein)
chain: RSVYELDSIPLWGTVSIQGNRSEMEDAFAVSPHFLKLPIKMLMGDHEGMSPSLTHLTGHFFGVYDGHGGHKVADYCRDRLHFALAEEIERIKDELSKRNTGEGRQVQWDKVFTSCFLTVDGEIEGKIGRAVVGSSDKVLEAVASETVGSTAVVALVCSSHIVVSNCGDSRAVLFRGKEAMPLSVDHKPDREDEYARIENAGGKVIQWQGARVFGVLAMSRSIGDRYLKPYVIPEPEVTFMPRSREDECLILASDGLWDVMNNQEVCEIARRRILMWHKKNGAPPLAERGKGIDPACQAAADYLSMLALQKGSKDNISIIVIDLKAQRKFKTRT
Kd (Biorep 1): 2.53 nM
Kd (Biorep 2): 5.01 nM
